# Measured values reported in US20260041732A1, “USE OF APELIN FOR THE TREATMENT OF LYMPHEDEMA” (INSTITUT NATIONAL DE LA SANTE ET DE LA RECHERCHE MEDICALE, priority 2022, published 2026).
# B1: APELIN: bioactive peptide apelin, endogenous ligand of APJ; applied to HDLEC as conditioned media from LV-Apelin transduced NIH3T3 or by transduction (protein, listed as Homo sapiens)
# chain: MNLRLCVQALLLLWLSLTAVCGGSLMPLPDGNGLEDGNVRHLVQPRGSRNGPGPWQGGRRKFRRQRPRLSHKGPMPF
# Assays:
# [1] = system: Human dermal lymphatic endothelial cells (HDLEC); experiment: RT-qPCR validation of gene induction; assay type: cell-based; conditions: RT-qPCR on HDLEC
# Method: Total RNA was prepared using RNeasy kit (Qiagen 74106) according to the supplier's instruction. 1 μg of RNA was retro-transcribed using high-Capacity cDNA Reverse Transcription Kit (Thermo Fisher Scientific, 4368813) containing Multi-Scribe Reverse Transcriptase according to the supplier's instruction. Quantitative real-time PCR was performed using OneGreen FAST qPCR premix (Ozyme, OZYA008) on a StepOne Real-time PCR System (Thermofisher Scientific). All samples were analysed in duplicates. Data was normalized relative to HPRT mRNA levels.
# [2] = cited from earlier work
# E2F8 = experiment: Chromatin immunoprecipitation (ChIP) with E2F8 antibody; assay type: cell-based, human; conditions: APELIN-overexpressing HDLEC
# Method: Human dermal lymphatic endothelial cells (HDLEC) non transduced or transduced with Apelin Lentivector, were crosslinked for 15 min using 1% formaldehyde directly in the culture medium. 0.125 M of Glycine were then added for 5 min. After two washes with cold PBS, cells were scraped and frozen at −80° C. Cells were lysed to ChIP-IT Express Magnetic Chromatin
# Immunoprecipitation kit (Active Motif 53008). Optimal sonication conditions were determined previously in order to obtain DNA fragments of about 500 bp. Cells were sonicated in 350 μl final volume of Shearing buffer specific to the kit, using Diagenode Bioruptor Sonicator (7 cycles, 30 sec ON, 30 sec OFF in a water bath). DNA concentration was determined using a Nanodrop and 25 μg of chromatin were used by reaction. Experiments were then performed according to the manufacturer protocol. 4 μg of E2F8 antibody (Abcam, AB 109596) were used by ChIP reaction. 10 μl of each sample were kept as Input. Reactions were incubated over night at 4° C. A mock sample without antibody was processed similarly. Prior to qPCR, DNA was purified using the Active Motif Chromatin IP DNA purification kit (58002), and eluted in 50 μl of DNase/RNase free water. 2 μl of purified chromatin was used for qPCR. In some experiments, ChIP reactions were supplemented with 10 ng of Drosophila melanogaster chromatin (spike in chromatin, Active motif, 08221011), and 1 μg of an antibody recognizing H2Av, a Drosophila specific histone variant, (spike in antibody, active motif, 61686), as an internal control for ChIP normalization.
# HDLEC were seeded in 6-well plates at 100 000 cells/well. After 24 h, cells were transduced with 1 mL of Apelin lentivector diluted in 1 mL of OptiMEM Media in the presence of proteamine sulfate at a final concentration of 5 μg/mL. The Control cells (NT) non transduced with the Apelin Lentivector were processed at the same time and following the same protocol; in this case 2 mL of OptiMEM and 5 μg/mL of proteamine sulfate were added to the cells. The media was replaced after 24 h. […]
molecule,measurement,setting,value
B1,CCBE1 induction,[1],strongly confirmed
same,plasma apelin half-life,[2],less than five minutes
same,E2F8 binding on FLT4,E2F8,no binding
same,E2F8 binding to CCBE1 promoter,E2F8,significantly increased
same,E2F8 binding to E2F1 transcription factor promoter,E2F8,induced
